The test deals with protein A (UniProt P38507). Put plainly: spectral-domain phase-sensitive interferometry (SD-PSI), label-free; protein A (0.5 mg/ml) adsorbed on a dopamine layer on a glass chip (0.17 or 0.20 mm) and blocked with protein-free blocking solution; IgG solution (20 ug/ml mouse IgG; gradient of 10, 20, 30, 50 ug/ml IgG) passed through the flow chamber; PBS washes; reference path without protein A.

Substance mouse IgG (antibody) displayed a phase change at 20 ug/ml IgG of 0.04 rad, a thickness variation at 10 ug/ml IgG of 1.86 nm, a thickness variation at 20 ug/ml IgG of 3.76 nm and a thickness variation at 30 ug/ml IgG of 5.45 nm. Further, the thickness variation at 50 ug/ml IgG was determined as 10.1 nm.
